Consider one molecule from patent publication US20220380801A1, “TRIPARTITE SYSTEMS FOR PROTEIN DIMERIZATION AND METHODS OF USE” (priority 2019, published 2022).

Like-named read-outs stand apart in the source and are kept apart here.

What all share (settings): remark: other sources report otherwise
For assay [1], the target named is T1, HCV NS3/4A PR (S139A):simeprevir complex (Hepatitis C virus subtype 1a). Description: HTRF, with simeprevir.
Assay [2] has as its target T1, HCV NS3/4A PR (S139A):simeprevir …. Description: phage ELISA. (In general: In an ELISA, binding on a coated surface is turned into a signal by an enzyme label.)
Assay [3] has the same target.
The target is the same in assay [4]. This is another data set of the same source.
For assay [5] the target is unchanged. The source holds these as a separate data set.
The target is the same in assay [6]. Nature of the assay: SPR Biacore 8K, PRSIM immobilised, protease flowed with 10 nM simeprevir. (Surface plasmon resonance follows binding to a sensor surface in real time, without labels.)
The target of assay [7] is HCV NS3/4A PR K136H (S139A background), in the presence of simeprevir (Hepatitis C virus subtype 1a).
The target of assay [8] is T1, HCV NS3/4A PR (S139A):simeprevir …. The source holds these as a separate data set.
Assay [9] has the same target. This is another data set of the same source.

B1: PRSIM_23 (designed binder)
chain: RLDAPSQIEVKDVTDTTALITWVDPRYDDIWWFELTYGIKDVPGDRTTIKLYLNDPYYSIGNLKPDTEYEVSLISYTGDSYSRSGSNPAKITFKTGL
In [1], B1 gave an HTRF max. signal (% delta F) of 1570 % delta F. Besides, in [2], the Binding fold change [(HCV protease + Simeprevir binding)/HCV protease alone] amounted to 23.8 fold. In addition, the Simeprevir EC50 for induction of heterodimerisation in assay [3] was 4.03 nM; in [5], 4.53 nM. Moreover, the results for the Kd in assay [4] and in assay [6] were 5.4 nM and 6.3 nM, respectively. Besides, in assay [6], the koff (as a rule, the first-order rate constant of dissociation) was 0.0318 s⁻¹. For the same molecule, the kon (commonly the second-order rate constant of association) in [6] was found to be 5.03e+06 M⁻¹ s⁻¹. Also, the EC50 (read off the curve) (as a rule, the concentration at which the effect is half-maximal) came out at 4 nM in assay [7], 3 nM in assay [8] and 2 nM in assay [9].
